The results in this text go back to patent US20210213145A1 (TAYU HUAXIA BIOTECH MEDICAL GROUP, published 2021).

Assay [1] addresses T1, mouse PD-L1 on transfected CHO cells (mouse, UniProt Q9EP73 19-290).
T1 construct: whole, on cells; also called mPD-L1; CHO/mPD-L1
Nature of the assay: flow cytometry on CHO/mPD-L1 cells, one antibody amount, not given. On the procedure: CHO cells transfected with mouse PD-L1 (CHO/mPD-L1) were used to assess the species cross-reactivity of the anti-hPD-L1 mAb with mouse PD-L1. The cells were incubated with the anti-hPD-L1 mAb prior to flow cytometry analysis.
On the technique in general: Flow cytometry measures light scatter and fluorescence of single cells or particles in a stream.

The target in assay [2] is T2, hPD-L1mIg fusion protein (human, UniProt Q9NZQ7 19-238).
T2 construct: also called hPD-L1 mIg protein; biotin-labeled hPD-L1-mouse Fc fusion protein; not shown: mouse Ig (Fc) part
Nature of the assay: SPR, Biacore T200; hPD-L1 mIg amine-coupled on CM5 chip, antibody injected at 1-32 nM, full kinetic analysis. On the procedure:
The binding affinities and kinetics between the humanized anti-hPD-L1 mAbs and the hPD-L1 protein were assessed with Biacore T200 (GE Healthcare Life Sciences). The hPD-L1 mIg protein was immobilized on the sensor chip CM5 by amine coupling. The parental and humanized antibodies were injected at a concentration gradient of 1, 2, 4, 8, 16, and 32 nM. Binding kinetic parameters, including association rate (Kₒₙ), dissociation rate (Koff), and affinity constant (KD) were determined by full kinetic analysis. […] As shown in Table 7 and FIG. 4, the antibodies with dissociation rates (Koff) from the lowest to the highest were: parental (PA200), H1+L2 (H12), H3+L2 (H32), H1+L1 (H11), H1+L3 (H13), H3+L1 (H31), H3+L3 (H33), H2+L2 (H22), H2+L1 (H21), and H2+L3 (H23).

Assay [3] addresses T2, hPD-L1mIg fusion protein. In words: BLI, ForteBio Octet RED96; biotin-labeled hPD-L1-mouse Fc on SA sensors, 1:1 model. On the procedure:
All samples were prepared in PBS buffer (pH=7.4). The biotin-labeled hPD-L1-mouse Fc fusion protein was loaded onto SA sensors at a pre-determined loading threshold. scFv (PD-L1) was applied to the sensors at a concentration gradient of 3.125 nM-50 nM. Background subtraction was used to correct for sensor drifting. The data was fit to a 1:1 binding model using ForteBio's data analysis software in order to obtain the association (Kₒₙ) and dissociation (Koff) rates. The KD values were calculated based on Koff/Kₒₙ.
A general note: BLI is a label-free optical method that tracks binding on a fibre tip over time.

Usually Kd stands for the concentration at which binding is half-saturated. Lower therefore signals higher affinity. For orientation: koff means the first-order rate constant of dissociation. Low readings indicate slow dissociation, high ones fast dissociation. One may read the kon as a measure of how fast the partners come together.

T2 sequence (Q9NZQ7 19-238): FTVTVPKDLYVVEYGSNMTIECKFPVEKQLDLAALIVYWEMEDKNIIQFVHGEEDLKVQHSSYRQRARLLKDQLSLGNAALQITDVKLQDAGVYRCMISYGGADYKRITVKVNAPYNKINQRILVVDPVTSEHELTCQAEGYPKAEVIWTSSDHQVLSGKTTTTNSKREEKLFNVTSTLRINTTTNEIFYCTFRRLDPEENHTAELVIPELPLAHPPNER
T1 sequence (Q9EP73 19-290): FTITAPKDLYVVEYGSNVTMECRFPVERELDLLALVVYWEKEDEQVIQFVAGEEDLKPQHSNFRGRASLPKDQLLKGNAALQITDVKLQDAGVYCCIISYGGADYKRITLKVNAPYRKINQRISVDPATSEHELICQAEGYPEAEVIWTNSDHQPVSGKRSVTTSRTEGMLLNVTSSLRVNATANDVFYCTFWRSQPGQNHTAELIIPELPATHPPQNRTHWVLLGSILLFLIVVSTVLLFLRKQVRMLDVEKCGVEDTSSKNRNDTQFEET

B1: anti-hPD-L1 mAb 5B7 (antibody, IgG1, V domains shown)
VH: EVQLQQSGAELVKPGASVKLSCTASGFNIKDTYMYWVKQRPEQGLECIGRIDPANDNTKYDPKFQGKATITADTSSNTAYVQLASLTSEDTAVYYCARAKNLLNYFDYWGQGTTLTVSS
VL: DIQMTQSPSSLSASLGERVTLSCRASQEISGYLSWLQQKPDGTIKRLIYATSTLDSGVPKRFSGSRSGSDYSLTISSLESEDFADYYCLQYAIYPLTFGAGTKLELKR
notes: also called anti hPD-L1 monoclonal antibody 5B7; anti-hPD-L1 monoclonal antibody
B1: in assay [1], the binding result is listed as “binds”.

B2: anti-PD-L1 parental (mouse-human chimeric mAb) (antibody, human IgG1, kappa, V domains shown)
VH: EVQLQQSGAELVKPGASVKLSCTASGFNIKDTYMYWVKQRPEQGLECIGRIDPANDNTKYDPKFQGKATITADTSSNTAYVQLASLTSEDTAVYYCARAKNLLNYFDYWGQGTTLTVSS
VL: DIQMTQSPSSLSASLGERVTLSCRASQEISGYLSWLQQKPDGTIKRLIYATSTLDSGVPKRFSGSRSGSDYSLTISSLESEDFADYYCLQYAIYPLTFGAGTKLELKR
notes: its variable domains are the same; also called parental chimeric antibody; parental (PA200)
In the assay with hPD-L1mIg fusion protein [2], B2 displayed a dissociation constant Kd of 0.128 nM, a koff of 0.000118 s⁻¹ and a kon of 924000 M⁻¹ s⁻¹.

B3: parental humanized IgG1 positive control antibody (antibody, V domains shown)
VH: QVQLVQSGAEVKKPGASVKVSCKASGFNIKDTYMYWVRQAPGQGLEWMGRIDPANDNTKYAQKFQGRVTITADTSTSTAYMELSSLRSEDTAVYYCARAKNLLNYFDYWGQGTLVTVSS
VL: DIQMTQSPSSLSASVGDRVTITCRASQEISGYLSWLQQKPGKAPKRLIYATSTLQSGVPSRFSGSRSGTDYTLTISSLQPEDFATYYCLQYAIYPLTFGQGTKLEIKR
notes: also called anti-PD-L1 IgG1; Anti-Human PD-L1 IgG1
In the assay with hPD-L1mIg fusion protein [3], B3 had a Kd of 6.92 nM, an off-rate constant (koff) of 0.000225 s⁻¹ and a kon of 32600 M⁻¹ s⁻¹.

B4: anti-PD-L1 HC1 + LC2 (antibody, V domains shown)
VH: QVQLVQSGAEVKKPGASVKVSCKASGFNIKDTYMYWVRQAPGQGLEWMGRIDPANDNTKYAQKFQGRVTITADTSTSTAYMELSSLRSEDTAVYYCARAKNLLNYFDYWGQGTLVTVSS
VL: DIQMTQSPSSLSASVGDRVTITCRASQEISGYLSWLQQKPGKAPKRLIYATSTLQSGVPSRFSGSRSGTDYTLTISSLQPEDFATYYCLQYAIYPLTFGQGTKLEIKR
notes: Humanized antibody, Humanized VH 1 + Humanized VL 2; also called H1+L2; H12
For the molecule B4, in the assay with hPD-L1mIg fusion protein [2], the dissociation constant Kd was found to be 0.557 nM, the koff came out at 0.000811 s⁻¹ and the kon is 1.46e+06 M⁻¹ s⁻¹.

B5: anti-PD-L1 HC2 + LC2 (antibody, V domains shown)
VH: QVQLVQSGAEVKKPGASVKVSCKASGFNIKDTYMYWVRQAPGQGLEWIGRIDPANDNTKYAPKFQGRVTITADTSTNTAYMELSSLRSEDTAVYYCARAKNLLNYFDYWGQGTLVTVSS
VL: DIQMTQSPSSLSASVGDRVTITCRASQEISGYLSWLQQKPGKAPKRLIYATSTLQSGVPSRFSGSRSGTDYTLTISSLQPEDFATYYCLQYAIYPLTFGQGTKLEIKR
notes: Humanized antibody, Humanized VH 2 + Humanized VL 2; also called H2+L2; H22
In the assay with hPD-L1mIg fusion protein [2], B5 returned a dissociation constant Kd of 1.23 nM, a dissociation rate constant (koff) of 0.00251 s⁻¹ and a kon of 2.05e+06 M⁻¹ s⁻¹.

B6: anti-PD-L1 HC3 + LC3 (antibody, V domains shown)
VH: EVQLVQSGAEVKKPGASVKVSCKASGFNIKDTYMYWVRQAPGQGLEWMGRIDPANDNTKYAQKFQGRVTITADTSTNTAYMELSSLRSEDTAVYYCARAKNLLNYFDYWGQGTLVTVSS
VL: DIQMTQSPSSLSASVGDRVTITCRASQEISGYLSWYQQKPGKAPKRLIYATSTLDSGVPSRFSGSRSGSDYTLTISSLQPEDFATYYCLQYAIYPLTFGQGTKLEIKR
notes: Humanized antibody, Humanized VH3 + Humanized VL 3; also called H3+L3; H33
In the assay with hPD-L1mIg fusion protein [2], B6 yielded a Kd of 1 nM, a koff of 0.00146 s⁻¹ and a kon of 1.46e+06 M⁻¹ s⁻¹.

B7: anti-PD-L1 HC1 + LC1 (antibody, V domains shown)
VH: QVQLVQSGAEVKKPGASVKVSCKASGFNIKDTYMYWVRQAPGQGLEWMGRIDPANDNTKYAQKFQGRVTITADTSTSTAYMELSSLRSEDTAVYYCARAKNLLNYFDYWGQGTLVTVSS
VL: DIQMTQSPSSLSASVGDRVTITCRASQEISGYLSWYQQKPGKAPKRLIYATSTLDSGVPSRFSGSGSGTDFTLTISSLQPEDFATYYCLQYAIYPLTFGQGTKLEIKR
notes: Humanized antibody, Humanized VH 1 + Humanized VL 1; also called H1+L1; H11
In the assay with hPD-L1mIg fusion protein [2], B7 registered a Kd of 1.38 nM, an off-rate (koff) of 0.0012 s⁻¹ and a kon of 869000 M⁻¹ s⁻¹.

B8: anti-PD-L1 HC1 + LC3 (antibody, V domains shown)
VH: QVQLVQSGAEVKKPGASVKVSCKASGFNIKDTYMYWVRQAPGQGLEWMGRIDPANDNTKYAQKFQGRVTITADTSTSTAYMELSSLRSEDTAVYYCARAKNLLNYFDYWGQGTLVTVSS
VL: DIQMTQSPSSLSASVGDRVTITCRASQEISGYLSWYQQKPGKAPKRLIYATSTLDSGVPSRFSGSRSGSDYTLTISSLQPEDFATYYCLQYAIYPLTFGQGTKLEIKR
notes: Humanized antibody, Humanized VH 1 + Humanized VL 3; also called H1+L3; H13
On to B8, for which, in the assay with hPD-L1mIg fusion protein [2], the Kd is 1.3 nM, the koff was determined as 0.00143 s⁻¹ and the association rate constant (kon) came out at 1.1e+06 M⁻¹ s⁻¹.

B9: anti-PD-L1 HC3 + LC1 (antibody, V domains shown)
VH: EVQLVQSGAEVKKPGASVKVSCKASGFNIKDTYMYWVRQAPGQGLEWMGRIDPANDNTKYAQKFQGRVTITADTSTNTAYMELSSLRSEDTAVYYCARAKNLLNYFDYWGQGTLVTVSS
VL: DIQMTQSPSSLSASVGDRVTITCRASQEISGYLSWYQQKPGKAPKRLIYATSTLDSGVPSRFSGSGSGTDFTLTISSLQPEDFATYYCLQYAIYPLTFGQGTKLEIKR
notes: Humanized antibody, Humanized VH3 + Humanized VL 1; also called H3+L1; H31
Turning to B9, in the assay with hPD-L1mIg fusion protein [2], the dissociation constant (Kd) is 1.17 nM, the off-rate (koff) was found to be 0.00146 s⁻¹ and the on-rate (kon) was 1.25e+06 M⁻¹ s⁻¹.

B10: anti-PD-L1 HC3 + LC2 (antibody, V domains shown)
VH: EVQLVQSGAEVKKPGASVKVSCKASGFNIKDTYMYWVRQAPGQGLEWMGRIDPANDNTKYAQKFQGRVTITADTSTNTAYMELSSLRSEDTAVYYCARAKNLLNYFDYWGQGTLVTVSS
VL: DIQMTQSPSSLSASVGDRVTITCRASQEISGYLSWLQQKPGKAPKRLIYATSTLQSGVPSRFSGSRSGTDYTLTISSLQPEDFATYYCLQYAIYPLTFGQGTKLEIKR
notes: Humanized antibody, Humanized VH3 + Humanized VL 2; also called H3+L2; H32
In the assay with hPD-L1mIg fusion protein [2], B10 gave a Kd of 0.666 nM, a koff of 0.0011 s⁻¹ and a kon of 1.65e+06 M⁻¹ s⁻¹.

B11: anti-PD-L1 HC2 + LC1 (antibody, V domains shown)
VH: QVQLVQSGAEVKKPGASVKVSCKASGFNIKDTYMYWVRQAPGQGLEWIGRIDPANDNTKYAPKFQGRVTITADTSTNTAYMELSSLRSEDTAVYYCARAKNLLNYFDYWGQGTLVTVSS
VL: DIQMTQSPSSLSASVGDRVTITCRASQEISGYLSWYQQKPGKAPKRLIYATSTLDSGVPSRFSGSGSGTDFTLTISSLQPEDFATYYCLQYAIYPLTFGQGTKLEIKR
notes: Humanized antibody, Humanized VH 2 + Humanized VL 1; also called H2+L1; H21
In the assay with hPD-L1mIg fusion protein [2], B11 showed a Kd of 2.18 nM, a koff of 0.00406 s⁻¹ and a kon of 1.86e+06 M⁻¹ s⁻¹.

B12: anti-PD-L1 HC2 + LC3 (antibody, V domains shown)
VH: QVQLVQSGAEVKKPGASVKVSCKASGFNIKDTYMYWVRQAPGQGLEWIGRIDPANDNTKYAPKFQGRVTITADTSTNTAYMELSSLRSEDTAVYYCARAKNLLNYFDYWGQGTLVTVSS
VL: DIQMTQSPSSLSASVGDRVTITCRASQEISGYLSWYQQKPGKAPKRLIYATSTLDSGVPSRFSGSRSGSDYTLTISSLQPEDFATYYCLQYAIYPLTFGQGTKLEIKR
notes: Humanized antibody, Humanized VH 2 + Humanized VL 3; also called H2+L3; H23
In the assay with hPD-L1mIg fusion protein [2], B12 displayed a dissociation constant Kd of 1.84 nM, a koff of 0.00417 s⁻¹ and an association rate constant (kon) of 2.26e+06 M⁻¹ s⁻¹.
